For two molecules, Kd results are on record in PMC10532153 (2023).

In one assay the target is T1, Sos-S2 peptide (Drosophila melanogaster, UniProt P26675).
T1 chain: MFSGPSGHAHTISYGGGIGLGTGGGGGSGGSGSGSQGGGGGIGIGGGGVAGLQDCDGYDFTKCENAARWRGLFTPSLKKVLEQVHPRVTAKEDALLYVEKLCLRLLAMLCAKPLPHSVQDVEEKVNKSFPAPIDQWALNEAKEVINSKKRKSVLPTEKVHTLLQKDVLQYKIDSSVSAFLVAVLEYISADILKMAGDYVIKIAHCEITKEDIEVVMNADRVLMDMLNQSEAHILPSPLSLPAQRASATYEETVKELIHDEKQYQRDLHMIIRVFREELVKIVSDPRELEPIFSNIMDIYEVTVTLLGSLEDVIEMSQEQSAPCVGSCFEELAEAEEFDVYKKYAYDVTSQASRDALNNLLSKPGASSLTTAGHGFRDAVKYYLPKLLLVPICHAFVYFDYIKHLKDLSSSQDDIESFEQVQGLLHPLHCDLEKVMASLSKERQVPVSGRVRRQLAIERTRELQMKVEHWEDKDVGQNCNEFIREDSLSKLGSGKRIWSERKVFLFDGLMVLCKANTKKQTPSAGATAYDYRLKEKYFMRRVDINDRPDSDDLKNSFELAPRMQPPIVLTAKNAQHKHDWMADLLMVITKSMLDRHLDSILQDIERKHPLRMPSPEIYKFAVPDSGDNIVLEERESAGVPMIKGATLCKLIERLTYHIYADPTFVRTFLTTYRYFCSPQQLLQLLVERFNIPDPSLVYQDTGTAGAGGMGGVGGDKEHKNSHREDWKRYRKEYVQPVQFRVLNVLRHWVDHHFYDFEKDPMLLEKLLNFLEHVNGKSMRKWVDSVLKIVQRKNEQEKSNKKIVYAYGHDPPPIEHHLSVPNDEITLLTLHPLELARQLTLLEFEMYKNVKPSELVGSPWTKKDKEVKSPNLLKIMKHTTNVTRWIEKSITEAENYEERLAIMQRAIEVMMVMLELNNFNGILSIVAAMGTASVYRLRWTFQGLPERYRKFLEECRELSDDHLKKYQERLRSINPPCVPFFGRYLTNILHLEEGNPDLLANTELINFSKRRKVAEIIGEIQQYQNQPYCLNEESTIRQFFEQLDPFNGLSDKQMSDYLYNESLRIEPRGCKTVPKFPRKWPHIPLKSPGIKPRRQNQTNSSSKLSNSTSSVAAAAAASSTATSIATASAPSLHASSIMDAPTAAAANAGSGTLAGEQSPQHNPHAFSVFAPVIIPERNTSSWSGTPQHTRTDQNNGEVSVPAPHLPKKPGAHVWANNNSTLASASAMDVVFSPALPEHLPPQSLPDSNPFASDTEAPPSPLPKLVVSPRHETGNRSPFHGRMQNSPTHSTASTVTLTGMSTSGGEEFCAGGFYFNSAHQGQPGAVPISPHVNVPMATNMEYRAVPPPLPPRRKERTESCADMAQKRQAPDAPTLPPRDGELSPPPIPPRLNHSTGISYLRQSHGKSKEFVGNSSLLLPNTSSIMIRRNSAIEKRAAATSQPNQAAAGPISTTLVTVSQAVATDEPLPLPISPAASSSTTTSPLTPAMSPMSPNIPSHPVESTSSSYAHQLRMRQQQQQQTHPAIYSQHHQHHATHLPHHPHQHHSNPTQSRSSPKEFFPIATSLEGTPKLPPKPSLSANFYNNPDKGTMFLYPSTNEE
Nature of the assay: NMR titration.

The next assay addresses T2, Sos-S1 peptide (Drosophila melanogaster, UniProt P26675).
T2 chain: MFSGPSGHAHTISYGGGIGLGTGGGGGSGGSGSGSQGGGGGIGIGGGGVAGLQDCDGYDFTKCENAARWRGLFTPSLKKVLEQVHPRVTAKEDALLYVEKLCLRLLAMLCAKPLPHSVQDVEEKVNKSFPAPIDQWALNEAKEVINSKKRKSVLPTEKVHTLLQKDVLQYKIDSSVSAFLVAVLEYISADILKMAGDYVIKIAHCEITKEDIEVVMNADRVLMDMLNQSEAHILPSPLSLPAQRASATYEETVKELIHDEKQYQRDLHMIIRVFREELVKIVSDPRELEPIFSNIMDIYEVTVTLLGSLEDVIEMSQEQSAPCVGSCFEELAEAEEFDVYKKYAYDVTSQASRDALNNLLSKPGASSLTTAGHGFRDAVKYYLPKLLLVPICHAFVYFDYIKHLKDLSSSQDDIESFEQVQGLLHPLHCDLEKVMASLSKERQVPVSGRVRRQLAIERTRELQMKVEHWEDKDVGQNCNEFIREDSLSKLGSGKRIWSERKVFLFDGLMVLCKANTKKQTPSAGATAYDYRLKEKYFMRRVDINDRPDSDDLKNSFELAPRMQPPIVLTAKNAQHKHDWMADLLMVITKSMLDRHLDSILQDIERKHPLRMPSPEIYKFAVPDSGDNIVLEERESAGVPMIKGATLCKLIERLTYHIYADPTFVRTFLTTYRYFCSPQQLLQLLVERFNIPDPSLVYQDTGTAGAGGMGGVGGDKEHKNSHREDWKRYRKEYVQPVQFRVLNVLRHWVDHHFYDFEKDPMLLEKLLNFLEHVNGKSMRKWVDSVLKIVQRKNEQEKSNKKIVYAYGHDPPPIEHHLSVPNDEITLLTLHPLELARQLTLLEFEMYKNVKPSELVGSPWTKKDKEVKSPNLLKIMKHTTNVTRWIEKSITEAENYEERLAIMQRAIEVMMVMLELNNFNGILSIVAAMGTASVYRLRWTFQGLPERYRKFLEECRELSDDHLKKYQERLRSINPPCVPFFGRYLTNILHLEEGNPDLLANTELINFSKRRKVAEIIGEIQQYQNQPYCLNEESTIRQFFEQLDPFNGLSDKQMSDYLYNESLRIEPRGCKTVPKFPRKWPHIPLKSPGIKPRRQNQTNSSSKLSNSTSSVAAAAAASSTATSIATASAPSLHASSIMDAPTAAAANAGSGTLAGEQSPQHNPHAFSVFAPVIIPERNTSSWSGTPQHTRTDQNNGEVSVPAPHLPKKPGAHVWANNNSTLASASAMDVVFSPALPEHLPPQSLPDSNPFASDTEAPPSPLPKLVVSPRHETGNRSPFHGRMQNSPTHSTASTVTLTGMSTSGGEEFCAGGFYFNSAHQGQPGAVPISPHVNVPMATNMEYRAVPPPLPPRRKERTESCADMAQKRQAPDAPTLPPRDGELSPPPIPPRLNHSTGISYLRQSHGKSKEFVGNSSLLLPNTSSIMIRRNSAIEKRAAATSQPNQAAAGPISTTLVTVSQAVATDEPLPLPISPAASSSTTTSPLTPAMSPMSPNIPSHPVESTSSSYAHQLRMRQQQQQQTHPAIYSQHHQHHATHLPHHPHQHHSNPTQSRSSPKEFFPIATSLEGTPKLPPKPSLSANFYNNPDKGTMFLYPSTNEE
The experiment in a line: NMR titration.

B1: Drk NSH3 (protein)
chain: MEAIAKHDFSATADDELSFRKTQILKILNMEDDSNWYRAELDGKEGLIPSNYIEMKNH
With B1, the dissociation constant (Kd) was approximately 41 µM in the assay with Sos-S2 peptide and approximately 13 µM with Sos-S1 peptide.

B2: Drk CSH3 (protein)
chain: PEEMLVQALYDFVPQESGELDFRRGDVITVTDRSDENWWNGEIGNRKGIFPATYVTPYHS
Take B2: in the assay with Sos-S1 peptide, the Kd is approximately 160 µM.

For orientation: Kd means the concentration at which binding is half-saturated. A low value points to higher affinity.
